{
  "source": "patent US11932673B2",
  "about": "“Sodium channel inhibitors” (priority 2017, dated 2024)",
  "molecules": {"B1": {"name": "KB_A12: EETI-II VL CDR2 KnotBody, D1A12 VH, VL SEQ ID NO: 105/373; parental/isotype control (antibody, V domains shown)", "VH": "EVQLVESGGGLVRPGGSLRLSCAASGFTFSSYAMSWVRQAPGKGLEWVSAISGSGGSTYYADSVKGRFTISRDNTKNSLYLQMTSLRADDTAFYYCVKDFGPGYGTGWFDYWGPGTLVTVSS", "VL": "QSVLTQPPSVSEAPRQRVTITCSGSSSNIGNNAVNWYQQLPGKAPKLLIYAAGRCPRILMRCKQDSDCLAGCVCGPNGFCGANSGVSDRFSAAKSGTSASLAINGLRSEDEADYYCAAWDDSLNGYVFGTGTKLTVLG"}},
  "key": {"trypsin": {"tested_on": "trypsin", "assay": "TRF binding assay of purified KnotBody Fabs on biotinylated trypsin"}, "LOX-1": {"target": "LOX-1 (Homo sapiens, UniProt P78380)", "assay": "Phage TRF binding assay of adhiron-antibody fusions on LOX-1", "conditions": "monoclonal phage; LOX-1 directly immobilised; non-specific binding checked on cMET-FC, GAS6-CD4, FGFR4-CD4, UPA, B-gal", "method": "In order to test the functionality of these adhiron-antibody fusions, monoclonal phage prepared from each clone was assessed for binding to LOX-1 in a TRF binding assay. In this assay, LOX-1 (immobilised directly on Maxisorp™ plates) binding of phage displaying adhiron-antibody fusion was detected using a mouse anti-M13 antibody (GE Healthcare) followed by europium conjugated anti-mouse antibody (Perkin Elmer). Parent KnotBodies KB_A07 and KB_A12 (EETI-II fusions) were included as controls. Proteins cMET-FC, GAS6-CD4, FGFR4-CD4, UPA and B-gal were used to examine non-specific binding."}, "[1]": {"tested_on": "in vitro rat BBB model system", "format": "in vitro ADME", "conditions": "Fab format, oligoclonal mixes of 3 Fabs at final 2 μM, controls 1 μM, blood side to brain side, 37° C.", "method": "In order to assess the ability of these KnotBodies to cross the BBB, a ready to use in vitro rat BBB model system (Pharmacocell, Cat. No. RBT-24H) was used. In this model system rat brain endothelial cells were co-cultured with pericytes and astrocytes to mimic the in vivo BBB anatomy (Nakagawa, S. et al. (2009) Neurochem. Int. 54, 253-263). The in vitro rat BBB kit was cultured according to manufacturer's instructions and transendothelial electrical resistance (TEER) was measured prior to testing of KnotBodies to verify the integrity of the barrier. […] 21 KnotBody Fabs were tested for their ability to cross the in vitro BBB model system. […] The parent KnotBody KB_A12 was used as a negative control. Both positive and negative controls were expressed and purified in the Fab format as described above. […] The concentration of transcytosed Fabs in the lower chamber (referred as brain side) was determined using a sandwich ELISA. In this ELISA, Fabs were captured using an anti-CH1 antibody (provided by Hybridoma Reagent Laboratories) and detected using rabbit anti-human IgG Kappa light chain antibody (Abcam, Cat. No. ab195576) or anti-human IgG Lambda light chain antibody (Abcam, Cat. No. ab124719) followed by europium conjugated anti-rabbit antibody (Perkin Elmer, Cat. No. AD0105). […]"}, "huASIC1a": {"target": "T1, huASIC1a (Homo sapiens, UniProt P78348)", "T1 sequence (P78348 whole entry, looked up)": "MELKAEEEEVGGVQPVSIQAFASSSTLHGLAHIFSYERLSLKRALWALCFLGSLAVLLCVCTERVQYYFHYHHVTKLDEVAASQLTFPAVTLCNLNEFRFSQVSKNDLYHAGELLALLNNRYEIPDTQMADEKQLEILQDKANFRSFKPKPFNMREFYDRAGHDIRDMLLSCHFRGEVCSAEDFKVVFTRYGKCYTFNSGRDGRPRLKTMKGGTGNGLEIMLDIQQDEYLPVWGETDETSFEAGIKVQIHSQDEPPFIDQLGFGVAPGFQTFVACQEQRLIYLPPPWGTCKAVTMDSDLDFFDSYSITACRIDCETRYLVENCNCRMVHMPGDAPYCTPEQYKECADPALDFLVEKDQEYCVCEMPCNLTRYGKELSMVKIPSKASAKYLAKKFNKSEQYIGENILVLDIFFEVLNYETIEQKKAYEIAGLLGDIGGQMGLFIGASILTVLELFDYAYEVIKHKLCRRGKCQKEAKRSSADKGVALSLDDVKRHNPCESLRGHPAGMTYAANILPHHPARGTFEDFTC", "assay": "QPatch automated whole-cell patch-clamp on HEK293 cells stably expressing huASIC1a", "format": "cell-based", "conditions": "pH 6.0 activation after 15-20 min pre-incubation; concentration μM: KB_A07_PcTx1 6.6, KB_A12_PcTx1 5, KB_A12_Mba-1 3, KB_A12_Mba-2 2.3, KB_A07 6, KB_A12 3.3", "method": "Knottin Kv 1.3 and ASIC1a blockers expressed in the KnotBody format (see examples 6 and 7) were tested for their ability to inhibit the function of the ion channel targets. The effect of these KnotBodies on cells expressing the human Kv 1.3 (huKv1.3) or human ASIC1a channels was assessed using QPatch automated whole-cell patch-clamp electrophysiology (Sophion).\nTo functionally assess the ASIC1a KnotBodies, HEK293 cells stably expressing huASIC1a (Sophion) were analysed using a QPatch electrophysiology assay in the presence or absence of the KnotBody fusions (using KB_A12 as a recipient and replacing the original EETI-II donor as shown in Table 8). The “parental” KB_A12 with the EETI-II donor was used as a negative control. Internal and external physiological solutions were freshly prepared prior to the assay. […]\nAt the end of each KnotBody incubation and subsequent ASIC1a current activation, a full blocking concentration (300 nM) of the ASIC1a knottin inhibitor PcTx1 (positive control) was perfused onto the cell recording and a final activating pH 6.0 external solution was applied. The percentage remaining signal between activating pH 6.0 baseline (i.e. pre-KnotBody) and post-KnotBody incubation was determined."}},
  "data": [
    {"molecule": "B1", "values": [
      {"measurement": "TRF signal for 0.6 ug/mL Fab", "setting": "trypsin; KnotBody Fab 0.6 ug/mL, background (no Fab) 431", "value": 102132},
      {"measurement": "TRF signal for 2.4 ug/mL Fab", "setting": "trypsin; KnotBody Fab 2.4 ug/mL, background (no Fab) 406", "value": 221989},
      {"measurement": "TRF signal for 10 ug/mL Fab", "setting": "trypsin; KnotBody Fab 10 ug/mL, background (no Fab) 420", "value": 252832},
      {"measurement": "binding to LOX-1", "setting": "LOX-1", "value": "no detectable binding to the LOX-1"},
      {"measurement": "% transcytosis after 6 h", "setting": "[1]", "value": 0.1, "unit": "%"},
      {"measurement": "% current remaining", "setting": "huASIC1a", "value": 67.4, "unit": "%"}
    ]}
  ]
}
